{
  "source": "paper doi:10.1101/621219",
  "about": "(bioRxiv, 2019)",
  "binders": {"B1": {"name": "C-terminal domain of TonB1 from Pseudomonas aeruginosa PAO1 (residues 251-340) (domain or fragment, Pseudomonas aeruginosa strain PAO1, UniProt Q51368 251-340, looked up)", "chain": "DSDIKPLRMDPPVYPRMAQARGIEGRVKVLFTITSDGRIDDIQVLESVPSRMFDREVRQAMAKWRFEPRVSGGKIVARQATKMFFFKIEK"}},
  "key": {"[1]": {"target": "T1, FoxA, TonB-dependent ferrioxamine B transporter from Pseudomonas aeruginosa PAO1 (full-length) (Pseudomonas aeruginosa strain PAO1, UniProt Q9I116 1-820)", "T1 sequence (looked up)": "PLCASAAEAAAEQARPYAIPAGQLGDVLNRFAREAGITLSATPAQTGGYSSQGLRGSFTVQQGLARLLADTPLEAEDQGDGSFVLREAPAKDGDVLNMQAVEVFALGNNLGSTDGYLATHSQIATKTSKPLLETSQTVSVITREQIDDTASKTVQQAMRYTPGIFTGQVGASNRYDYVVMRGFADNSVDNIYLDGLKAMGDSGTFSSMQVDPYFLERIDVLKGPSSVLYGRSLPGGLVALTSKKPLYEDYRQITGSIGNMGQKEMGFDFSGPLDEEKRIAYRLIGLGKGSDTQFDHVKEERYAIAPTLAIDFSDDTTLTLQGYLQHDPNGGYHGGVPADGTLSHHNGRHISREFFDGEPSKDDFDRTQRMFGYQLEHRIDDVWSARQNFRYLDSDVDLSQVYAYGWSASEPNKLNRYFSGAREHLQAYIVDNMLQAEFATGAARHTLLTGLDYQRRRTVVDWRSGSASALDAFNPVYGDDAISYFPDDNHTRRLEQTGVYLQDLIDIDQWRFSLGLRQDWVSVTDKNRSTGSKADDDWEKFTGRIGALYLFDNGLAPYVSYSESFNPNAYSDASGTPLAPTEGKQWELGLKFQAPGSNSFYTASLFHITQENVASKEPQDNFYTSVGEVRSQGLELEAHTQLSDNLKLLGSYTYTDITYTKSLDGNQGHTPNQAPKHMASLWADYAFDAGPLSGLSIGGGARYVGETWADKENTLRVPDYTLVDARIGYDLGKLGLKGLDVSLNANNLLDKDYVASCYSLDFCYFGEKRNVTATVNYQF", "assay": "ITC"}, "[2]": {"target": "T1, FoxA, TonB-dependent ferrioxamine B …", "assay": "ITC", "remark": "listed apart in the source"}},
  "note": "Values joined by “and” are separate entries in the source; they are usually repeats but may differ in a detail not shown here. Equal entries are not always repeated. Where two headings read alike, the source gives them in different places.",
  "data": [
    {"binder": "B1", "values": [
      {"measurement": "Kd", "setting": "[1]", "result": "107 ± 30", "unit": "nM"},
      {"measurement": "dH", "setting": "[1]", "result": "-11 ± 0.3", "unit": "kcal/mol"},
      {"measurement": "Kd", "setting": "[2]", "result": "6 nM and 6 to 10 nM"},
      {"measurement": "dH", "setting": "[2]", "result": "-19.2 ± 0.4", "unit": "kcal/mol"}
    ]}
  ]
}
